In the supplement of paper PMC12042874:
± gives the uncertainty stated by the source.

Experiment: amyloid nucleation score (Sup35N fusion, yeast selection) (log enrichment); library NNK1; higher = more nucleation; inactive = no reads after selection
Procedure, shortened: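 In psi-negative yeast, Sup35N fusions carrying peptides of 20 random codons were induced with 100 μM copper sulfate for 24 hours. The cells then grew 7 days at 30°C on medium lacking adenine and uracil, and plasmid inserts from input and output were Illumina-sequenced, excluding sequences with under 100 input reads. Nucleation score is the DiMSum log enrichment of output over input reads, centred on the mode score of non-aggregating sequences.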

Substance | amyloid nucleation score
FQSLGTFLDIQLCGHNLVAE | 0.537 ± 0.34
FQYLNLGISRHSARWTCTFL | -0.698 ± 1.4
FQYTACIN | 1.08 ± 0.57
FRHYTANYWYISRRRRMLSV | inactive
FRIAGSKRCFCID | 0.463 ± 0.31
FRKGDILRTFSMFKSKYTVG | 0.839 ± 0.65
FRLEGRCSLLFCTCRLDV | 0.561 ± 0.45
FRLVNIIR | 0.317 ± 0.33
FRMCCNYYICHLDGVILIG | 1.65 ± 0.26
FRRLRMLLILASKFGVD | -0.392 ± 0.34
FRRVVNVSCTLTHSWIILLM | 0.042 ± 1.1
FRSPN | -0.285 ± 0.58
FRWYRLRIIKSFSGNSASVR | 3.1 ± 0.074
FRYKDGCSFSTAVDYSCRMF | 1.06 ± 0.23
FSAIMVRC | inactive
FSASFNGLAAGRLASR | -0.105 ± 1.3
FSCFLMEISKGRGH | 4.18 ± 0.11
FSGCQSARGKLWVSDWEL | inactive
FSGLCRSTPGI | -0.469 ± 0.32
FSHGFMITICHWEMTKETDW | -0.476 ± 0.37
FSLFTWSWFR | 0.625 ± 0.42
FSMSILENRYTTFELSGAYQ | -0.722 ± 0.66

Substance | amyloid nucleation score
FSPSLVMHSATSLRNVGLSA | -0.93 ± 2.4
FSRPWWRSWHSFFSHDEKTI | 0.282 ± 0.69
FSRYLPKLNSLAKDSIPVGR | inactive
FSSEVRVWVWNCCFNRFSCI | 4.74 ± 0.061
FSSGVILSGRRRSLK | -0.437 ± 0.49
FSSQYQMSAGVF | -0.013 ± 0.56
FSTHSIWSLRVSNSVSLFNE | 0.178 ± 0.66
FSVNP | 1.22 ± 0.69
FSYCAFHIMNQWVVFNYGGC | 6.421 ± 0.06
FSYKIMTSGTCTTWRNAFFS | -0.341 ± 0.33
FTDLFPEDRIWVPDYAGQRR | 0.255 ± 1.4
FTESCRRGI | 0.053 ± 0.4
FTRSQAV | inactive
FTSPVIKY | 0.089 ± 0.89
FTWIVFANSSAYFRTLQWSC | 0.032 ± 0.28
FVDFMQRNWGLVRVPCHVSL | inactive
FVETS | 0.198 ± 0.29
FVEVVRTLEQI | -0.485 ± 1
FVFKIWQSD | 0.116 ± 0.58
FVGNPSRRWLCHCKFIAGGH | 0.137 ± 0.38
FVLWIY | 0.14 ± 0.47
FVMFMPFSSHFS | 0.848 ± 0.58

Substance | amyloid nucleation score
FVQFTCSIRDYCA | 0.033 ± 0.97
FVQWFASSCCIRPRRYFVSR | -1.42 ± 1.6
FVRGDKLRTTGELSSAINRS | -0.608 ± 0.57
FVSNGSYVGIS | -0.42 ± 0.51
FVTANMTKLFTLWNWRLPGK | 0.583 ± 0.29
FVTKGVERCRVPEVSLPCLI | -0.839 ± 1.2
FWKGASINYS | inactive
FWKTLQIFRTMVVN | 0.055 ± 0.9
FWNINSSFFGLTNDTLVPNF | 0.79 ± 0.22
FWVSCRSMCEIRVSLKLRLN | 0.719 ± 0.59
FWYFMLNMVQPRY | -0.198 ± 0.87
FYCMLSSSSNFPSGNDRAYD | -0.341 ± 0.5
FYFGTSDIPGFFNKSIYLVP | 0.435 ± 0.38
FYFTHRFRITVRYSVLVMRT | 1.69 ± 0.51
FYGFRCGYLDVSL | -0.648 ± 0.33
FYLSYVIIYSSSIRCLSSCR | 0.388 ± 0.71
FYRNIIKINMMVLWISWGHV | 0.185 ± 0.79
FYTLKFMVKALTVKKGVCVV | inactive
FYWMMANRNTQCVVCFAVLR | -0.754 ± 0.54
GAFGFITNRKRINCKLEDRD | -1.32 ± 2.4
GAIEASLVYRISNFKAGFAP | 1.91 ± 0.35
GAIIFLSCGWSKCFCTLWVI | -0.381 ± 0.38

Substance | amyloid nucleation score
GAKICIYELVLHEMRACVAR | -0.282 ± 0.96
GAPEVPIDYGLEASRNCSKG | -0.61 ± 1.4
GAPLTENKFVLRNFVMGSAL | 0.159 ± 0.77
GASGGVTASLLKTRITVTWV | -0.271 ± 0.79
GATSFFFSFRESNPLSNNHS | 2.79 ± 0.099
GAYLLPLSIWNLGPSNGR | 0.132 ± 0.44
GCHLVWFGVVYRQQWSFGVD | 0.563 ± 0.57
GCMVFS | 0.352 ± 0.76
GCNSMTRLLRGAWPPPYWRG | 0.274 ± 0.77
GCRTLHGGAVDKLYTWCHLA | 0.504 ± 0.92
GCSTYMVLMVGLGGGMLGGF | 1.32 ± 0.26
GCTSGGLCIGPPRSV | 0.906 ± 1
GDAMASFPAACCGTRCCGFV | 0.41 ± 0.4
GDKCLVTYCYLLGDGEGQQS | -0.05 ± 0.43
GDLGCVYSLFRSLFSSFTRS | 0.111 ± 0.35
GDNVFFMLERALFVVRNRRV | -0.386 ± 0.86
GDSRTLGLLCFYMKVG | -0.352 ± 0.41
GDVLVSTNHIGFFKGPG | 1.91 ± 0.27
GEGSCGVSLSSMYLQWGARV | -0.663 ± 0.83
